Earlier results on 5 substances are cited in paper PMC3001128.

Targets include CD48 IgV (UniProt P18181); CD58 IgV (Homo sapiens) (UniProt P19256); GITR (Homo sapiens) (UniProt Q9Y5U5); NTB-A (Homo sapiens) (UniProt Q96DU3).
Data set [1] concerns the target SLAM (CD150) (Homo sapiens) (UniProt Q13291).

UniProt P18181, sequence (P18181 29-125): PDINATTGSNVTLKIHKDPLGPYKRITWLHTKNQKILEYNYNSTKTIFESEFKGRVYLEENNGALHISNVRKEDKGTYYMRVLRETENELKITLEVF
UniProt P19256, sequence (P19256 30-121): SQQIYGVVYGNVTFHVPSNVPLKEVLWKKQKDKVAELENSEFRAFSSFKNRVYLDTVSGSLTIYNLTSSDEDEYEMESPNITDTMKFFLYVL
UniProt Q9Y5U5, sequence (Q9Y5U5 26-241): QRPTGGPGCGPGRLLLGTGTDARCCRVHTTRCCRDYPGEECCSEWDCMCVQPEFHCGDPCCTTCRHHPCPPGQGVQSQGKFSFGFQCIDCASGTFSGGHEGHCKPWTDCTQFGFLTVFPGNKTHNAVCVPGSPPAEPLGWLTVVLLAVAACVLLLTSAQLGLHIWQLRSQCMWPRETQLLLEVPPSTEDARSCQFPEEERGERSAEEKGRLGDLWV

As for 2B4 IgV (from UniProt Q07763), the equilibrium dissociation constant (Kd) with CD48 IgV is 4 µM. As for CD2 IgV (from UniProt P06729), in the data set with CD58 IgV (Homo sapiens), the Kd was 10 µM.

For GITRL (from UniProt Q9UNG2), the Kd with GITR (Homo sapiens) was 0.56 µM. Regarding NTB-A (from UniProt Q96DU3), the Kd with NTB-A (Homo sapiens) is 2 µM. SLAM (CD150) (from UniProt Q13291): the Kd in data set [1] is 200 µM.

Broadly, the Kd is the equilibrium constant for the complex coming apart.
